Results reported in the supplement of paper PMC10567573.

B1: KRT18 (parent)
chain: PQVRDWSHYFKIIEDLRAQIFANT
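Further: lentivirally expressed fusions sorted by FACS into six bins by GFP to DsRed ratio, PSI derived from sequencing read proportions per bin multiplied by bin number.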

Variants of: B1
Test: protein stability index of a GFP-peptide fusion (GPS, HEK-293T) (PSI 1-6); higher = more stable
Details: c terminus: a fixed tail appended
PQVRDWSHYFKIIFDLRAQIFANT [E14F] gave a protein stability index of 1.59. For PQVRDWSHYFKIIEDLRAQIFMNT [A22M], the protein stability index was 2.37. For PQVRDWSHYFKIIEDLRAQIFINT [A22I], the protein stability index was 2.5. With PQVRDWSHYFKIIEDLRAQIFKNT [A22K] the protein stability index was 2.1. For PQVRDWSHYFKIIEDLRAQIFFNT [A22F], the protein stability index was 1.8. For PQVRDWSHYFKIIEDLRAQIFCNT [A22C], the protein stability index was 1.9. With PQVRDWSHYFKIIEDLRAQIFPNT [A22P] the protein stability index was 2.4. PQVRDWSHYFKIIEDLRAQIFHNT [A22H] gave a protein stability index of 2. Variant PQVRDWSHYFKIIEDLRAQIFGNT [A22G] has a protein stability index of 2.51. PQVRDWSHYFKIIEDLRAQIFNNT [A22N] gave a protein stability index of 2.53. Variant PQVRDWSHYFKIIEDLRAQIFDNT [A22D] has a protein stability index of 2.49. Variant PQVRDWSHYFKIIEDLRAQIFLNT [A22L] has a protein stability index of 1.45. With PQVRDWSHYFKIIEDLRAQIFENT [A22E] the protein stability index was 2.12. In the case of PQVRDWSHYFKILEDLRAQIFANT [I13L], the protein stability index is reported as 2.27. With PQVRDWSHYFKINEDLRAQIFANT [I13N] the protein stability index was 2.38. Work on PQVRDWSHYFKIGEDLRAQIFANT [I13G] yielded a protein stability index of 2.9. Variant PQVRDWSHYFKISEDLRAQIFANT [I13S] has a protein stability index of 2.15. Variant PQVRDWSHYFKIVEDLRAQIFANT [I13V] has a protein stability index of 2.87. With PQVRDWSHYFKIKEDLRAQIFANT [I13K] the protein stability index was 1.79. PQVRDWSHYFKIMEDLRAQIFANT [I13M] showed a protein stability index of 1.62. For PQVRDWSHYFKIQEDLRAQIFANT [I13Q], the protein stability index was 2.75. With PQVRDWSHYFKIAEDLRAQIFANT [I13A] the protein stability index was 2.77. PQVRDWSHYFKIPEDLRAQIFANT [I13P] gave a protein stability index of 2.63. PQVRDWSHYFKIWEDLRAQIFANT [I13W] showed a protein stability index of 3.46. PQVRDWSHYFKIHEDLRAQIFANT [I13H] showed a protein stability index of 2.16. In the case of PQVRDWSHYFKICEDLRAQIFANT [I13C], the protein stability index is reported as 2.3. With PQVRDWSHYFKITEDLRAQIFANT [I13T] the protein stability index was 2.54. PQVRDWSHYFKIDEDLRAQIFANT [I13D] showed a protein stability index of 2.9. PQVRDWSHYFKIREDLRAQIFANT [I13R] showed a protein stability index of 2.69. With PQVRDWSHYFKIEEDLRAQIFANT [I13E] the protein stability index was 2.32. Work on PQVRDWSHYFKIFEDLRAQIFANT [I13F] yielded a protein stability index of 2.12. With PQVRDWSHYFKIYEDLRAQIFANT [I13Y] the protein stability index was 1.72. PQVRDWSHYFKIIEDLRTQIFANT [A18T] showed a protein stability index of 1.48. PQVRDWSHYFKIIEDLRDQIFANT [A18D] showed a protein stability index of 2.44. PQVRDWSHYFKIIEDLRKQIFANT [A18K] showed a protein stability index of 2.68. For PQVRDWSHYFKIIEDLRPQIFANT [A18P], the protein stability index was 2.15. For PQVRDWSHYFKIIEDLRWQIFANT [A18W], the protein stability index was 2.34. For PQVRDWSHYFKIIEDLRFQIFANT [A18F], the protein stability index was 2.24. PQVRDWSHYFKIIEDLRQQIFANT [A18Q] showed a protein stability index of 2.02. In the case of PQVRDWSHYFKIIEDLREQIFANT [A18E], the protein stability index is reported as 2.7. With PQVRDWSHYFKIIEDLRSQIFANT [A18S] the protein stability index was 2.25. Variant PQVRDWSHYFKIIEDLRLQIFANT [A18L] has a protein stability index of 2.29. With PQVRDWSHYFKIIEDLRVQIFANT [A18V] the protein stability index was 1.97. With PQVRDWSHYFKIIEDLRIQIFANT [A18I] the protein stability index was 2.13. PQVRDWSHYFKIIEDLRRQIFANT [A18R] gave a protein stability index of 2.44. With PQVRDWSHYFKIIEDLRNQIFANT [A18N] the protein stability index was 2.8. In the case of PQVRDWSHYFKIIEDLRHQIFANT [A18H], the protein stability index is reported as 1.88. With PQVRDWSHYFKIIEDLRYQIFANT [A18Y] the protein stability index was 1.77. For PQVRDWSHYFKIIEDLRGQIFANT [A18G], the protein stability index was 1.9. PQVRDWSHYFKIIEDLRMQIFANT [A18M] gave a protein stability index of 1.81. With PQVRDWSHYFKIIEDLRCQIFANT [A18C] the protein stability index was 1.94. With PQVRDWSHYFKSIEDLRAQIFANT [I12S] the protein stability index was 2.3. For PQVRDWSHYFKRIEDLRAQIFANT [I12R], the protein stability index was 2.55. PQVRDWSHYFKVIEDLRAQIFANT [I12V] gave a protein stability index of 2.04. PQVRDWSHYFKWIEDLRAQIFANT [I12W] gave a protein stability index of 3.05. Variant PQVRDWSHYFKTIEDLRAQIFANT [I12T] has a protein stability index of 2.78. With PQVRDWSHYFKYIEDLRAQIFANT [I12Y] the protein stability index was 2.2. Variant PQVRDWSHYFKIIEYLRAQIFANT [D15Y] has a protein stability index of 3.62. For PQVRDWSHYFKIIEHLRAQIFANT [D15H], the protein stability index was 1.57. For PQVRDWSHYFKIIEMLRAQIFANT [D15M], the protein stability index was 2.87. In the case of PQVRDWSHYFKIIEILRAQIFANT [D15I], the protein stability index is reported as 1.74. PQVRDWSHYFKIIEFLRAQIFANT [D15F] gave a protein stability index of 1.58. PQVRDWSHYFKIIEALRAQIFANT [D15A] gave a protein stability index of 2.47. With PQVRDWSHYFKIIEQLRAQIFANT [D15Q] the protein stability index was 1.71. Variant PQVRDWSHYFKIIERLRAQIFANT [D15R] has a protein stability index of 1.89. With PQVRDWSHYFKIIEGLRAQIFANT [D15G] the protein stability index was 2.16. In the case of PQVRDWSHYFKIIEELRAQIFANT [D15E], the protein stability index is reported as 2.28. For PQVRDWSHYFKIIEVLRAQIFANT [D15V], the protein stability index was 2.32. PQVRDWSHYFKIIESLRAQIFANT [D15S] gave a protein stability index of 2.09. Work on PQVRDWSHYFKIIEKLRAQIFANT [D15K] yielded a protein stability index of 3.02. PQVRDWSHYFKIIEWLRAQIFANT [D15W] showed a protein stability index of 1.61. For PQVRDWSHYFKIIEPLRAQIFANT [D15P], the protein stability index was 1.4. In the case of PQVRDWSHYFKIIENLRAQIFANT [D15N], the protein stability index is reported as 2.1. In the case of PQVRDWSHYFKIIETLRAQIFANT [D15T], the protein stability index is reported as 1.78. For PQVRDWSHYFKIIELLRAQIFANT [D15L], the protein stability index was 2.69. In the case of PQVRDWSHYFKIIEDTRAQIFANT [L16T], the protein stability index is reported as 2.09. PQVRDWSHYFKIIEDARAQIFANT [L16A] gave a protein stability index of 2.17. In the case of PQVRDWSHYFKIIEDGRAQIFANT [L16G], the protein stability index is reported as 2.32. PQVRDWSHYFKIIEDKRAQIFANT [L16K] gave a protein stability index of 1.85. Variant PQVRDWSHYFKIIEDWRAQIFANT [L16W] has a protein stability index of 2.05. Work on PQVRDWSHYFKIIEDNRAQIFANT [L16N] yielded a protein stability index of 2.62. Variant PQVRDWSHYFKIIEDHRAQIFANT [L16H] has a protein stability index of 2.13. In the case of PQVRDWSHYFKIIEDPRAQIFANT [L16P], the protein stability index is reported as 2.38. PQVRDWSHYFKIIEDYRAQIFANT [L16Y] showed a protein stability index of 2.26. In the case of PQVRDWSHYFKIIEDQRAQIFANT [L16Q], the protein stability index is reported as 2.47. For PQVRDWSHYFKIIEDMRAQIFANT [L16M], the protein stability index was 2.08. PQVRDWSHYFKIIEDFRAQIFANT [L16F] showed a protein stability index of 1.53. In the case of PQVRDWSHYFKIIEDCRAQIFANT [L16C], the protein stability index is reported as 1.7. PQVRDWSHYFKIIEDSRAQIFANT [L16S] gave a protein stability index of 2.03. In the case of PQVRDWSHYFKIIEDVRAQIFANT [L16V], the protein stability index is reported as 1.96. Work on PQVRDWSHYFKIIEDDRAQIFANT [L16D] yielded a protein stability index of 2.22. Variant PQVRDWSHYFKIIEDRRAQIFANT [L16R] has a protein stability index of 2.33. With PQVRDWSHYFKIIEDIRAQIFANT [L16I] the protein stability index was 2.03. Variant PQVRDWSHYFKIIEDERAQIFANT [L16E] has a protein stability index of 2.63.
